Reference: PMC4899477
Blank lines part the entries; values can stand above or below the substance they belong to.

Target: SV2A (SV2)
Assay: SV-PD (synaptic vesicle pull-down) with blocking peptide, immunoblot densitometry
Conditions: pull down w/ C3WildF (m1), lower value = stronger block of SV capture by the peptide, parent: est. 39, read off a plot

Substance: … mimetic blocking peptide (CaV2.2 aa 2319-2328) H1A; Q2A
other: SV2 capture by C3WildF in presence of peptide (% SH3) (N = 8): 58 % SH3

Substance: … mimetic blocking peptide (CaV2.2 aa 2319-2328) R4A; R5A
other: SV2 capture by C3WildF in presence of peptide (% SH3) (N = 3): 83 % SH3

Substance: … mimetic blocking peptide (CaV2.2 aa 2319-2328) V6A; P7A; N8A; G9A; Y10A
other: SV2 capture by C3WildF in presence of peptide (% SH3) (N = 5): 44 % SH3

Substance: … mimetic blocking peptide (CaV2.2 aa 2319-2328) V6A; P7G; N8G; Y10A
other: SV2 capture by C3WildF in presence of peptide (% SH3) (N = 7): 41 % SH3

Substance: … mimetic blocking peptide (CaV2.2 aa 2319-2328) V6A; Y10A
other: SV2 capture by C3WildF in presence of peptide (% SH3) (N = 8): 29 % SH3

Substance: … mimetic blocking peptide (CaV2.2 aa 2319-2328) V6G; Y10G
other: SV2 capture by C3WildF in presence of peptide (% SH3) (N = 6): 44 % SH3

Other lines, results leading:

other: SV2 capture by C3WildF in presence of peptide (% SH3) (N = 8): 74 % SH3
Substance: … mimetic blocking peptide (CaV2.2 aa 2319-2328) H1G; Q2G; V6A; P7G; N8G; Y10A

other: SV2 capture by C3WildF in presence of peptide (% SH3) (N = 8): 110 % SH3
Substance: … mimetic blocking peptide (CaV2.2 aa 2319-2328) R4G; R5G; V6A; P7G; N8G; Y10A

other: SV2 capture by C3WildF in presence of peptide (% SH3) (N = 6): 28 % SH3
Substance: … mimetic blocking peptide (CaV2.2 aa 2319-2328) V6G; P7A; N8A; G9A; Y10G
